For 38 variants, self-cleavage results are on record in the RNAGym collection of RNA variant scans (doi:10.7554/elife.80360).

To fix the notation:
B1: Hairpin Ribozyme (parent)
chain: GUCCUCUUUCACGUGCGCGUGAAAGAGAGAAGUGAACCAGAGAAACACACGUUGUGGUAUAUUACCUGGUA

In this data set the parent is B1. Description: self-cleavage, relative activity (ratio to wild type); higher = more cleavage; co-transcriptional.
For the variant GUCCUCUUUCACGUACGCGUGAAACAGAGAAGUGAACCAGAGAAACACACGUUGUGGUAUAUUACCUGGUA [G15A G25C], the self-cleavage was found to be 0.491. The value for GUCCUCUUUCACGUCCGCGUGAAAGAGAGAAGUGGACCAGAGAAACACACGUUGUGGUAUAUUACCUGGUA [G15C A35G] was 1.08. In the case of GUCCUCUUUCACGUACGCGUGAAAGAGAGAAGUGAACCAGAAAAACACACGUUGUGGUAUAUUACCUGGUA [G15A G42A], the self-cleavage came to 0.15. Next, GUCCUCUUUCACGUACGCGUGAAAGAGAGAAGUGAACCAGAGAAACACACGUUGUGGUACAUUACCUGGUA [G15A U60C]: 0.853. On to GUCCUCUUUCACGUCCGCGUGAAAGCGAGAAGUGAACCAGAGAAACACACGUUGUGGUAUAUUACCUGGUA [G15C A26C], for which the self-cleavage came out at 0.834.

Turning to GUCCUCUUUCACGUACGCGUGAAAGAGAGAAGUGAACCAGAGAAACACACGUUGUGGUAUAUUACCUGUUA [G15A G69U], the self-cleavage was found to be 0.217. For GUCCUCUUUCACGUACGCGUGAAAGAGAGAAGUGAACCAGAGAAACACACGUUGUGGUAUAUUACCUGAUA [G15A G69A], the self-cleavage amounted to 0.362. As to GUCCUCUUUCACGUACGCGUGAAAGAGACAAGUGAACCAGAGAAACACACGUUGUGGUAUAUUACCUGGUA [G15A G29C], the self-cleavage is 0.106. Turning to GUCCUCUUUCACGUACGCGUGAAAGAGAGAAUUGAACCAGAGAAACACACGUUGUGGUAUAUUACCUGGUA [G15A G32U], the self-cleavage came to 0.0825. Next, GUCCUCUUUCACGUACGCGUGAAAGAGAGAAAUGAACCAGAGAAACACACGUUGUGGUAUAUUACCUGGUA [G15A G32A]: 0.145; GUCCUCUUUCACGUCCGCGUGAAAGAGAGAAGUGAACCAGAGUAACACACGUUGUGGUAUAUUACCUGGUA [G15C A43U]: 0.126. On to GUCCUCUUUCACGUACGCGUGAAAGACAGAAGUGAACCAGAGAAACACACGUUGUGGUAUAUUACCUGGUA [G15A G27C], for which the self-cleavage was 0.146. As to GUCCUCUUUCACGUACGCGUGAAAGAGAGAAGUGAACCAUAGAAACACACGUUGUGGUAUAUUACCUGGUA [G15A G40U], the self-cleavage is 0.111.

Consider GUCCUCUUUCACGUACGCGGGAAAGAGAGAAGUGAACCAGAGAAACACACGUUGUGGUAUAUUACCUGGUA [G15A U20G], for which the self-cleavage was 0.85.

As to GUCCUCUUUCACGUCCGCGUGAAAGAGAGAAGUGAACCUGAGAAACACACGUUGUGGUAUAUUACCUGGUA [G15C A39U], the self-cleavage is 0.402. The value for GUCCUCUUUCACGUCCGCGUGAAAGAGAGAAGUGAACCCGAGAAACACACGUUGUGGUAUAUUACCUGGUA [G15C A39C] was 0.463. For the variant GUCCUCUUUCACGUCCGCGUGUAAGAGAGAAGUGAACCAGAGAAACACACGUUGUGGUAUAUUACCUGGUA [G15C A22U], the self-cleavage turned out to be 1.01. Take GUCCUCUUUCACGUCCGCGUGAUAGAGAGAAGUGAACCAGAGAAACACACGUUGUGGUAUAUUACCUGGUA [G15C A23U]: the self-cleavage is 1.02. In the case of GUCCUCUUUCACGUCCGCGUGACAGAGAGAAGUGAACCAGAGAAACACACGUUGUGGUAUAUUACCUGGUA [G15C A23C], the self-cleavage came out at 0.868.

On to GUCCUCUUUCACGUACGCGUGAAAGAGAGAAGUGAACCAGAGAAACACACGUUGUUGUAUAUUACCUGGUA [G15A G56U], for which the self-cleavage is 0.134. Take GUCCUCUUUCACGUACGCGUGAAAGAGAGAAGUGAACCAGAGAAACACACGUUGCGGUAUAUUACCUGGUA [G15A U55C]: the self-cleavage is 0.225. In the case of GUCCUCUUUCACGUCCGCGUGAAAGAGAGACGUGAACCAGAGAAACACACGUUGUGGUAUAUUACCUGGUA [G15C A31C], the self-cleavage worked out at 0.206.

As to GUCCUCUUUCACGUCCGCGUGAAUGAGAGAAGUGAACCAGAGAAACACACGUUGUGGUAUAUUACCUGGUA [G15C A24U], the self-cleavage came out at 0.884. The value for GUCCUCUUUCACGUCCGCGUGAAAGAGAGAAGUGACCCAGAGAAACACACGUUGUGGUAUAUUACCUGGUA [G15C A36C] was 0.678; that for GUCCUCUUUCACGUCCGCGUGAAAGAGAGAAGUGAGCCAGAGAAACACACGUUGUGGUAUAUUACCUGGUA [G15C A36G] was 1.06. For the variant GUCCUCUUUCACGUACGCGUGAAAGAGAGAAGUGAACCAGAGAAACACACGUUGUGGGAUAUUACCUGGUA [G15A U58G], the self-cleavage was 0.501. In the case of GUCCUCUUUCACGUACGCGUGAAAGAGAGAAGUGAACCAGAGAAACACACGUUGUGGAAUAUUACCUGGUA [G15A U58A], the self-cleavage was 0.533. The value for GUCCUCUUUCACGUACGCGUGAAAGAGAGAAGUGAACCAGAGAAACACACGUUGUGGUAUAUAACCUGGUA [G15A U63A] was 0.116; that for GUCCUCUUUCACGUACGCGUGAAAGAGAGAAGUGAACCAGAGAAACACACGUUGUGGUAUAUGACCUGGUA [G15A U63G] was 0.0686. Turning to GUCCUCUUUCACGUACGCGUGAAAGAGAGAAGUGAACCAGAGAAACACACGUUGUGGUAUAUCACCUGGUA [G15A U63C], the self-cleavage turned out to be 0.0715. As to GUCCUCUUUCACGUACGCGUGAAAGAGAGAAGUGAACCAGAGAAACACACGGUGUGGUAUAUUACCUGGUA [G15A U52G], the self-cleavage is 0.641. With GUCCUCUUUCACGUACGCGUGAAAGAGAGAAGUGAACCAGAGAAACACACCUUGUGGUAUAUUACCUGGUA [G15A G51C], the self-cleavage was 0.79. GUCCUCUUUCACGUACGCGUGAAAGAGAGAAGUGAACCAGAGAAACACACUUUGUGGUAUAUUACCUGGUA [G15A G51U]: the self-cleavage stood at 0.82. Consider GUCCUCUUUCACGUACGCGUGAAAGAGAGAAGAGAACCAGAGAAACACACGUUGUGGUAUAUUACCUGGUA [G15A U33A], for which the self-cleavage turned out to be 0.0921. Take GUCCUCUUUCACGUACGCGUGAAAGAGAGAAGCGAACCAGAGAAACACACGUUGUGGUAUAUUACCUGGUA [G15A U33C]: the self-cleavage is 0.117. Next, GUCCUCUUUCACGUACGCGUGAAAGAGAGAAGUGAACCAGAGAAACACACGUUGUGGUAUAUUACCUUGUA [G15A G68U]: 0.232; GUCCUCUUUCACGUCCGCGUGAAAGAGGGAAGUGAACCAGAGAAACACACGUUGUGGUAUAUUACCUGGUA [G15C A28G]: 1.29. As for GUCCUCUUUCACGUCCGCGUGAAAGAGCGAAGUGAACCAGAGAAACACACGUUGUGGUAUAUUACCUGGUA [G15C A28C], the self-cleavage was found to be 0.407.
